# Assay results: the nanobody polyreactivity screen of Harvey et al. (2022)
# Test: yeast display, Sf9 membrane polyspecificity reagent, FACS + sequencing; frameworks hold sequencing errors
# Outline: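 Galactose-induced (36–48 hours) yeast carrying a synthetic nanobody display library were exposed to 10% biotinylated, detergent-solubilized Sf9 membrane reagent at 4 °C for 1 hour. FACS followed streptavidin microbead enrichment, using low and high (top ~1%) gates for expression (anti-HA) and reagent binding (streptavidin). Colony PCR, MiSeq 2 × 250 sequencing and CDR-length filtering followed. Labels for polyreactivity reflect the gate of origin.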
row,Sequence,polyreactivity (PSR sort gate)
1,QVQLVESGGGLVQAGGSLRLTCAASGLTFYYYAMGRYRQATGKETELVASISTGGKKYYADSVKGRFTISRDNANNTVYLQMNSLKPEDTAVYYCAADRYDSSQFYYWGQGTQLTVSS,low polyreactivity
2,QVQHVESGGGLVQAGGSLRLSCAASGSIFGTYAMGWYRQAPGKERELVAAIRWSSGSTYYADSVKGRFTISRDNAKYTVYLLMNSLKPEDTAVYYCNAEYVYYWLGATFGYWGQGTQVTVSS,high polyreactivity
3,QVQLVESGGGLVQAGGSLRLSCAASGSTFGRNARGWYRQAPGKERELVAAITASGGTTYYADSVKGRFTISRDNAKNTVYLQMNSLKPEDTAVYYCNVSYLVYRWNFGWSMDFWGQGTQLTVSS,low polyreactivity
4,QVQLVESGGGLVQAGGSLRLSCASSGSTFKRYAMGWYRQAPGKERELVAAITLSGGNTYYADSVKGRFTISRDTAKNTVYLQLNSLKPEDTAVYYCAARRYRGYDYWGQGTQVTVTS,high polyreactivity
5,QVQLVESGGGLVQAGGSLRLSCAASGIFWYYAMGWYRQAPGKERELVAAISSGGSTYYADSVKGRFTISRDNAKNTVSLQMNSLKPEDTAVYYCNAVYWKASHYGYGYWGQGTQVTVSS,high polyreactivity
6,QVQLVESGGGLVQAGGSLRLSCAASGSTFLGNAMGWYRQAPGKERELVAGITSGGTTNYADSVKGRFTISRDNAKNTVYLQMNSLKPEDTAVYYCNADVWIGQRFDPGYDFDYWGQGTQVTVSS,low polyreactivity
7,QVQLVESGGGLVQAGGSLRLSCAASGSIGTYVMGWYRQAPGKERELVAAISLSGGSTYYADSVKGRFTISRDNAKNTVYLQMNSLKPEDTAVYYCNAVKATRNTGSDYWGQGTQVTVSS,low polyreactivity
8,QGQLVESGGGLVQAGGSRRLSCAASGRIFFYYAMGGYRQGPGQARELVAAISQSGASTYYADSVKGRFTISRDTAKNTVYLQMNSLKPEDTAVYYCNHKPYWYRDYYYWGQGTQVTVSS,high polyreactivity
9,QVQLVESGGGLVQAGGSLRLSCAASGRIFVTYAMGWYRQAPGKERELVASISRSGGRTYYADSVKGRFTISRDNAKNTVYLQMNSLKPEDTAVYYCNADQEGYQQYFYLGSPYDYWGQGTQVTVSS,low polyreactivity
10,QVQLVESGGGLVQAGGSIRLSCAASGSIFWYNAMGWYRQAPGKERELVAGITSGGDTNYADSVKGRFTISRDNAKNTVYLQMNRLKPEDTAVYYCAKRWDGGRRYDYWGQGTQVTVSS,low polyreactivity
11,QVQLVESGGGLVQAGGSLRLSCAASGRIFWDYGMGWYRQAPGKERELVAVITWGGGSTYYADSVKGRFTISRDNAKNTVYFQMNSLKPEDTAVYYCAKEYHYYYWGQGTQVTVSS,low polyreactivity
12,QVQLVESGGGLVQAGGSLRLSCAASGFTFVGYAMGWYRQAPGKERELVAAITGRGGTTYYADSVKGRFTISRDNAKNTVYLQMNSLKPEDTAVYYSNADSYITYVQYLYARSWMDYWGQGTQVTVSS,low polyreactivity
13,QVQLVESGRGLVQAGGSLRLSCAASGNTFGENAMGWYRKAPGKERELVAAISNGGTTNYADSVKGRFTISRDNAKNSVYLQMNSLKPEDTAVYYCNAKFGISQPGHSGLLKMDYWGQGTQVTVSS,low polyreactivity
14,QVQLVESGGGLVQAGGSLRLSCAACGSIFYWNAMVWYRQAPGKERELVAAINSGDSTNYADSVKGRFTISRDNAKNTVYFQMNSLKPEDTAVYYCAASIYAALNGGPGYDYWGLGTQVTVSS,low polyreactivity
15,QVQLVESGGGLVQAGGSLRLSCAASGGIVSVYAMGWYRQAPGQERELVASITVSGGSTSYADSVKGRFTISRDNAKNTVYLQMNSLIPEDTAVYYCNTDFGQAHTLSWYEDMDYWGQGTQVTVSS,low polyreactivity
16,QVQLVESGGGLVQAGGSLRLSCAASGITFTDYAMGWYRQAPGKERELVAAISSRGGSTYYADSVQGRFTISRDNAKNTVYVQMNSLKPEDTAVHYCNARFVRRGSGYDYWGQGTQVTVSS,high polyreactivity
